What all share (assay): cryo-EM structure
In data set [1] the target is FAP385 (Chlamydomonas reinhardtii).
In data set [2] the target is LC8 (RSP22) (Chlamydomonas reinhardtii).
Data set [3] concerns the target RSP16 (Chlamydomonas reinhardtii).
Data set [4] deals with the molecule itself.
Data set [5] deals with the molecule itself. This is another data set of the same source.

Like-named read-outs stand apart in the source and are kept apart here.

FAP385 (natural protein) showed a stoichiometry N in data set [1] of 2.
LC8 (RSP22) (natural protein) showed a stoichiometry N in data set [2] of 2.
RSP16 (natural protein) had a stoichiometry N in data set [3] of 2.

B1: RSP9 (natural protein, Chlamydomonas reinhardtii, UniProt Q27YU5 1-269, looked up)
chain: MVQLEPNITLVLKHLASCGAVVSAEQQAALDHSIPIKRIEAGLRSLTLWGRLTTLNGKDYLVAEGYNVASSKEGAAVYETKYFYSQDGARWSDLQPVDSETATRCARIKGMLSGDPAKNYELEEKDPNAPEPSPEAEEEVKPLVFQIPELAVLRCRVDAIATATSVIPTDSTILNAASQVVPNRLFAGAAYPEKLESYQHRFSLPGSGVTLSQDLRGTWAVQYDAFKGVAQVRSLLFPGYFFYYAANELTWGSLYVGDGLRNNDLIFML
For B1, the “stoichiometry N” value in the data set “cryo-EM structure [4]” was 2.

B2: p28 (natural protein, Chlamydomonas reinhardtii, UniProt Q39604 1-253, looked up)
chain: MIPPLSSLVRYDNPVLVSTSKDKGKGAKGTPGKKGALPPVEQKPGLTQTEDILNSILPPREWTEDGQLWVQYVSSTPATRLDVINLQEKLDQQLQQRQARETGICPIREELYAQTFDELIRQVTINCAERGLLLLRVRDEMRMTIAAYQTLYESAVAFGIRKALQTEQGKSEMESRITQLEGDVKDLERQVQEWKFKCEAIEKRESERREVEAKKHKDEVAYLENYAKQLKQQLETFLVPAKKGAPGAPAAAT
Take B2: the “stoichiometry N” value in “cryo-EM structure [5]” came to 2.

B3: DRC4 (natural protein, Chlamydomonas reinhardtii, UniProt Q7XJ96 1-471, looked up)
chain: MAPKKKGTKKESKKDAVATGDIEGASVEELNQKIGTLEKEKNKEEEYRNYMQLERDKINAFWEITKKDLEDRRAELRNKDREMEEMEERHQVEIKVYKQKVKHLLYEHQNNITTLKSDGELALKLQQDEYRKREGDLGKDKRNLKLELKEQELAHQDIIRQLKLEHAKEITKLRQEFEQQAKDLQSKYEKKMKMLRDDMELRRKQEIHEIEERKNTHINELMKKHERAFAEIKNYYNDITHNNLDLIKTLKEDVAEMKRREAANEKLMYEIAQDNKKLSEPLSRALKEVELLRQQLANYDKDKLSLAQTKARLLNAERQIKNLEWENEVLSQRFSKVQTERDELYGKFEASIYDVQQKTGLKSALLEKKVEALGEALEMKEAQLAEVLTAANLDPGTLAAINQRLEEVLDNKNQIIKALQYDVAKVSKAHNDLIRVYEAKLTEFGIPVDELGFRPLVTNTSTGPAGLVVGA
Consider B3, for which, in the data set “cryo-EM structure [5]”, the “stoichiometry N” value amounted to 2.

Source of the values: paper PMC7855293 (Nature structural & molecular biology, 2020).
